According to patent US20260085105A1 (Amgen, published 2026):

What was measured:
… (MAGEA8)/HLA-A*02:01 = … (MAGEA8)/HLA-A*02:01 (human); assay: cell-based or functional assay
[1] = target: T1, AK2 peptide on HLA-A*02:01 (human); assay: killing
T1 peptide: FLLDGFPRTV

[2] = target: T2, COX14 peptide on HLA-A*02:01 (human); assay: killing
T2 peptide: TVYGGYLCSV

[3] = target: T3, DDAH peptide on HLA-A*02:01 (human); assay: killing
T3 peptide: VLFTGREFFV

[4] = target: T4, ACTB peptide on HLA-A*02:01 (human); assay: killing
T4 peptide: DSGDGVTHTV

[5] = target: T5, OSBPL10 peptide on HLA-A*02:01 (human); assay: killing
T5 peptide: SQYSGQLHEV

[6] = target: T6, PGRMC1 peptide on HLA-A*02:01 (human); assay: killing
T6 peptide: LLKEGEEPTV

[7] = target: T7, VPS13B peptide on HLA-A*02:01 (human); assay: killing
T7 peptide: GLMDGSPHFL

[8] = target: T8, ATOH8 peptide on HLA-A*02:01 (human); assay: killing
T8 peptide: VLEDGPWKTV

[9] = target: T9, FAS peptide on HLA-A*02:01 (human); assay: killing
T9 peptide: ALLDGRLQVV

[10] = target: T10, PLD4 peptide on HLA-A*02:01 (human); assay: killing
T10 peptide: GLFDGVPTTA

[11] = target: T11, IMPDH1 peptide on HLA-A*02:01 (human); assay: killing
T11 peptide: IIADGGIQTV

[12] = target: T12, XIAP peptide on HLA-A*02:01 (human); assay: killing
T12 peptide: FLYTGEGTV

[13] = target: T13, UTRN peptide on HLA-A*02:01 (human); assay: killing
T13 peptide: NQWDGTQHGV

[14] = target: T14, DPYSL4 peptide on HLA-A*02:01 (human); assay: killing
T14 peptide: GLYDGPVHEV

[15] = target: T15, DPYSL2 peptide on HLA-A*02:01 (human); assay: killing
T15 peptide: GLYDGPVCEV

[16] = target: T16, MYOF peptide on HLA-A*02:01 (human); assay: killing
T16 peptide: FFVYDEPGHAV

[17] = target: T17, CDNP2 peptide on HLA-A*02:01 (human); assay: killing
T17 peptide: GVYGGSVHEA

[18] = target: T18, KEAP1 peptide on HLA-A*02:01 (human); assay: killing
T18 peptide: GVIDGHIYAV

[19] = target: T19, DYNC1H1 peptide on HLA-A*02:01 (human); assay: killing
T19 peptide: FLSDPQVHTV

[20] = target: T20, STXBP5 peptide on HLA-A*02:01 (human); assay: killing
T20 peptide: YTYDEAIHSV

[21] = target: T21, MAGE-A4 peptide on HLA-A*02:01 (human); assay: multimer staining
T21 peptide: GVYDGREHTV

B1: TCR18 (running number 7 of Table 1A) (TCR, V domains shown)
V domain 1: AQTVTQSQPEMSVQEAETVTLSCTYDTSENNYYLFWYKQPPSRQMILVIRQEAYKQQNATENRFSVNFQKAAKSFSLKISDSQLGDTAMYFCALLDSGNTPLVFGKGTRLSVIA
V domain 2: NAGVTQTPKFRILKIGQSMTLQCAQDMNHNYMYWYRQDPGMGLKLIYYSVGAGITDKGEVPNGYNVSRSTTEDFPLRLELAAPSQTSVYFCASSYTNNEQFFGPGTRLTVLE
> 1000 fold: fold difference in EC50 between the MAGEA4 and MAGEA8 peptides, TDCC on peptide-loaded T2 cells (… (MAGEA8)/HLA-A*02:01)

B2: TCR7 of Tables 1A and 1B (TCR18) (TCR, V domains shown)
Valpha: AQTVTQSQPEMSVQEAETVTLSCTYDTSENNYYLFWYKQPPSRQMILVIRQEAYKQQNATENRFSVNFQKAAKSFSLKISDSQLGDTAMYFCALLDSGNTPLVFGKGTRLSVIA
Vbeta: NAGVTQTPKFRILKIGQSMTLQCAQDMNHNYMYWYRQDPGMGLKLIYYSVGAGITDKGEVPNGYNVSRSTTEDFPLRLELAAPSQTSVYFCASSYTNNEQFFGPGTRLTVL
no recognition: binding result [1] | binding result [2] | binding result [3] | binding result [4] | binding result [5] | binding result [6] | binding result [7] | binding result [8] | binding result [9] | binding result [10] | binding result [11] | binding result [12] | binding result [13] | binding result [14] | binding result [15] | binding result [16] | binding result [17] | binding result [18] | binding result [19] | binding result [20]
recognises: binding result [21]

B3: TCR8 of Tables 1A and 1B (printed TCR18) (TCR, V domains shown)
Valpha: KQEVTQIPAALSVPEGENLVLNCSFTDSAIYNLQWFRQDPGKGLTSLLLIQSSQREQTSGRLNASLDKSSGRSTLYIAASQPGDSATYLCAVDAHARLMFGDGTQLVVKP
Vbeta: EPEVTQTPSHQVTQMGQEVILRCVPISNHLYFYWYRQILGQKVEFLVSFYNNEISEKSEIFDDQFSVERPDGSNFTLKIRSTKLEDSAMYFCASISGEQYFGPGTRLTVT
recognises: binding result [21]
no recognition: binding result [1] | binding result [2] | binding result [3] | binding result [4] | binding result [5] | binding result [6] | binding result [7] | binding result [8] | binding result [9] | binding result [10] | binding result [11] | binding result [12] | binding result [13] | binding result [14] | binding result [15] | binding result [16] | binding result [17] | binding result [18] | binding result [19] | binding result [20]
